Laboratory results: patent EP2574667A1, “Enzyme variants” (Technische Universität Graz, priority 2011, dated 2013)

How the values were obtained:
[1] = target: T1, 4-hydroxymandelate synthase (Hms, HMS) from Streptomyces coelicolor A3 (2), wild type, SEQ ID No. 1 (Streptomyces coelicolor, UniProt Q9Z4X7); conditions: Table 2; apparent, air saturation (260 µM dioxygen), Tris buffer 20 mM pH 7.5, 25°C
T1 sequence (Q9Z4X7 1-371): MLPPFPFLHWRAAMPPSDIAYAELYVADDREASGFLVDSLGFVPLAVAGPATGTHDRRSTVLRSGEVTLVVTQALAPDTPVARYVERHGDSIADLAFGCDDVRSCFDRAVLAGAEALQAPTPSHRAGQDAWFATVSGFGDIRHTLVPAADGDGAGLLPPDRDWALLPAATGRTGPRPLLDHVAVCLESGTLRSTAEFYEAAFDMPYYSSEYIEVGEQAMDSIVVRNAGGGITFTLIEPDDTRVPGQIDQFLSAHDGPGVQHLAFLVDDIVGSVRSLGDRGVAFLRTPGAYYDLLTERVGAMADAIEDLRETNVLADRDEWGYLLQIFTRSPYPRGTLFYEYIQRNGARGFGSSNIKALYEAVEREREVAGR
Experimental: (§3) The reactivity of HMS towards a range of aromatic oxo-acids was assessed, whereby the impact of substituents in the para-position of the aromatic ring regarding electronic structure and size was probed. […] Where activities were high enough to allow a steady state kinetic analysis, specific activities (kcat) and Michaelis Menten constants (Km) were determined (the assays were performed at air saturation (=260µM dioxygen concentration, therefore all kinetic constants are apparent)). […] Reactions were performed in Tris buffer (20 mM, pH 7.5), at 25°C at air saturation.

O=C(O)C(=O)Cc1ccccc1 [2] = assay: Steady state kinetics by O2 depletion, HMS variant I236F; type: biochemical, Streptomyces coelicolor A3 (2); conditions: other: Table 3, apparent, air saturation, pH 7.5, 25.0 °C
Experimental: (§1) Dioxygen consumption was continuously monitored using a micro-optode O2 sensor (Microtox TX3-AOT, Presens GmbH,Regensburg, Germany). Assays were generally performed at 25°C in air saturated 20 mM Tris/HCl buffer, pH 7.5 with enzyme concentrations of approx. 20 µM. To start the reaction, substrate aliquots were added from 5 mM stock solutions of the respective substrate to the desired end-concentration in a total volume of 500 µL. Initial rates were determined by linear regression analysis using the initial, linear part of the O2 depletion curve. O2 consumption rates from blanks that contained substrate in the absence of enzyme were subtracted as necessary. Specific activities were obtained by relating measured rates of O2 depletion to the protein derived Fe(II) content in the assay.
(§2) Kinetic analysis was performed via measuring O2 depletion. Kinetic parameters are apparent, as measurements were performed at air saturation. Product analysis was performed via HPLC (method is outlined in Appendix B) and confirmed via GC-MS. It could be shown that the enzyme converts phenylpyruvate analogues as a whole cell system, when a substrate analogue (e.g. p-F-phenylpyruvate) was added to cultures of E.coli BL21 cells overexpressing HMS variant S221M_V223M_Y359A. The overexpression was induced with IPTG as described in Material and Methods. […]

O=C(O)C(=O)Cc1ccccc1 [3] = assay: Steady state kinetics by O2 depletion, HMS variant S221M; type: biochemical, Streptomyces coelicolor A3 (2); conditions: other: Table 3, apparent, air saturation, pH 7.5, 25.0 °C
Experimental: as §1, §2

O=C(O)C(=O)Cc1ccccc1 [4] = assay: Steady state kinetics by O2 depletion, HMS variant S221M_Y359A; type: biochemical, Streptomyces coelicolor A3 (2); conditions: other: Table 3, apparent, air saturation, pH 7.5, 25.0 °C
Experimental: as §1, §2

O=C(O)C(=O)Cc1ccccc1 [5] = assay: Steady state kinetics by O2 depletion, HMS variant V223F Y359A; type: biochemical, Streptomyces coelicolor A3 (2); conditions: other: Table 3, apparent, air saturation, pH 7.5, 25.0 °C
Experimental: as §1, §2

O=C(O)C(=O)Cc1ccccc1 [6] = assay: Steady state kinetics by O2 depletion, HMS variant V223F; type: biochemical, Streptomyces coelicolor A3 (2); conditions: other: Table 3, apparent, air saturation, pH 7.5, 25.0 °C
Experimental: as §1, §2

O=C(O)C(=O)Cc1ccccc1 [7] = assay: Steady state kinetics by O2 depletion, HMS variant V223M; type: biochemical, Streptomyces coelicolor A3 (2); conditions: other: Table 3, apparent, air saturation, pH 7.5, 25.0 °C
Experimental: as §1, §2

O=C(O)C(=O)Cc1ccccc1 [8] = assay: Steady state kinetics by O2 depletion, HMS variant V223W; type: biochemical, Streptomyces coelicolor A3 (2); conditions: other: Table 3, apparent, air saturation, pH 7.5, 25.0 °C
Experimental: as §1, §2

O=C(O)C(=O)Cc1ccccc1 [9] = assay: Steady state kinetics by O2 depletion, HMS variant Y359A; type: biochemical, Streptomyces coelicolor A3 (2); conditions: other: Table 3, apparent, air saturation, pH 7.5, 25.0 °C
Experimental: as §1, §2

[10] = substrate: COc1ccc(CC(=O)C(=O)O)cc1; assay: purified protein, by the assay type; conditions: other: Table 2, apparent, air saturation (260 µM dioxygen), Tris buffer 20 mM pH 7.5, 25°C
Experimental: as §3

[11] = substrate: O=C(O)C(=O)Cc1ccc([N+](=O)[O-])cc1; assay: purified protein, by the assay type; conditions: other: Table 2, apparent, air saturation (260 µM dioxygen), Tris buffer 20 mM pH 7.5, 25°C
Experimental: as §3

[12] = substrate: O=C(O)C(=O)Cc1ccc(F)cc1; assay: purified protein, by the assay type; conditions: other: Table 2, apparent, air saturation (260 µM dioxygen), Tris buffer 20 mM pH 7.5, 25°C
Experimental: as §3

[13] = substrate: O=C(O)C(=O)Cc1ccccc1; assay: purified protein, by the assay type; conditions: other: Table 3; apparent, air saturation, O2 depletion; pH 7.5; 25.0 °C
[14] = substrate: Cc1ccc(CC(=O)C(=O)O)cc1; assay: purified protein, by the assay type; conditions: other: Table 2, apparent, air saturation (260 µM dioxygen), Tris buffer 20 mM pH 7.5, 25°C
Experimental: as §3

Molecule: COc1ccc(CC(=O)C(=O)[O-])cc1.[Na+]
- kcat [1]: 0.96 ± 0.12 s⁻¹

Molecule: 4-hydroxymandelate synthase (HMS) from Streptomyces coelicolor A3 (2), variant I236F (Streptomyces coelicolor A3(2); I236F)
- Km (O=C(O)C(=O)Cc1ccccc1 [2]): 2000 µM
- kcat (O=C(O)C(=O)Cc1ccccc1 [2]): 0.9 s⁻¹

Molecule: 4-hydroxymandelate synthase (HMS) from Streptomyces coelicolor A3 (2), variant S221M, SEQ ID No. 6 (Streptomyces coelicolor A3(2); S221M)
- Km (O=C(O)C(=O)Cc1ccccc1 [3]): 330 µM
- kcat (O=C(O)C(=O)Cc1ccccc1 [3]): 1.9 s⁻¹

Molecule: 4-hydroxymandelate synthase (HMS) from Streptomyces coelicolor A3 (2), variant S221M_Y359A, SEQ ID No. 8 (Streptomyces coelicolor A3(2); S221M/Y359A)
- Km (O=C(O)C(=O)Cc1ccccc1 [4]): 240 µM
- kcat (O=C(O)C(=O)Cc1ccccc1 [4]): 1.1 s⁻¹

Molecule: 4-hydroxymandelate synthase (HMS) from Streptomyces coelicolor A3 (2), variant V223F Y359A (V223F_Y359A), SEQ ID No. 7 (Streptomyces coelicolor A3(2); V223F/Y359A)
- Km (O=C(O)C(=O)Cc1ccccc1 [5]): 1000 µM
- kcat (O=C(O)C(=O)Cc1ccccc1 [5]): 2.1 s⁻¹

Molecule: 4-hydroxymandelate synthase (HMS) from Streptomyces coelicolor A3 (2), variant V223F, SEQ ID No. 2 (Streptomyces coelicolor A3(2); V223F)
- Km (O=C(O)C(=O)Cc1ccccc1 [6]): 27 µM
- kcat (O=C(O)C(=O)Cc1ccccc1 [6]): 1.1 s⁻¹

Molecule: 4-hydroxymandelate synthase (HMS) from Streptomyces coelicolor A3 (2), variant V223M, SEQ ID No. 4 (Streptomyces coelicolor A3(2); V223M)
- Km (O=C(O)C(=O)Cc1ccccc1 [7]): 230 µM
- kcat (O=C(O)C(=O)Cc1ccccc1 [7]): 1.9 s⁻¹

Molecule: 4-hydroxymandelate synthase (HMS) from Streptomyces coelicolor A3 (2), variant V223W, SEQ ID No. 3 (Streptomyces coelicolor A3(2); V223W)
- Km (O=C(O)C(=O)Cc1ccccc1 [8]): 230 µM
- kcat (O=C(O)C(=O)Cc1ccccc1 [8]): 0.5 s⁻¹

Molecule: 4-hydroxymandelate synthase (HMS) from Streptomyces coelicolor A3 (2), variant Y359A, SEQ ID No. 5 (Streptomyces coelicolor A3(2); Y359A)
- Km (O=C(O)C(=O)Cc1ccccc1 [9]): 270 µM
- kcat (O=C(O)C(=O)Cc1ccccc1 [9]): 4.8 s⁻¹

B1: 4-hydroxymandelate synthase (Hms, HMS) from Streptomyces coelicolor A3 (2), wild type, SEQ ID No. 1 (Streptomyces coelicolor A3(2)) (protein)
chain: MLPPFPFLHWRAAMPPSDIAYAELYVADDREASGFLVDSLGFVPLAVAGPATGTHDRRSTVLRSGEVTLVVTQALAPDTPVARYVERHGDSIADLAFGCDDVRSCFDRAVLAGAEALQAPTPSHRAGQDAWFATVSGFGDIRHTLVPAADGDGAGLLPPDRDWALLPAATGRTGPRPLLDHVAVCLESGTLRSTAEFYEAAFDMPYYSSEYIEVGEQAMDSIVVRNAGGGITFTLIEPDDTRVPGQIDQFLSAHDGPGVQHLAFLVDDIVGSVRSLGDRGVAFLRTPGAYYDLLTERVGAMADAIEDLRETNVLADRDEWGYLLQIFTRSPYPRGTLFYEYIQRNGARGFGSSNIKALYEAVEREREVAGR
- Km [10]: 160 ± 70 µM
- kcat [11]: 0.035 ± 0.007 s⁻¹
- kcat [12]: 0.077 ± 0.004 s⁻¹
- Km [13]: 350 µM
- kcat [13]: 0.9 s⁻¹
- kcat [14]: 0.13 ± 0.02 s⁻¹
